Measured values from the supplement of paper PMC10567573.

B1: ANKRD40 (parent)
chain: YQELLRVCCCELGVNPDQVEKIRK
B2: P2RY14 (parent)
chain: KLLSVIVWMLMLLLAVPNIILTNQ

Variants of: B1
Assay: protein stability index of a GFP-peptide fusion (GPS, HEK-293T) (PSI 1-6); higher = more stable
Settings: c terminus: a fixed tail appended
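Further: lentivirally expressed fusions sorted by FACS into six bins by GFP to DsRed ratio, PSI derived from sequencing read proportions per bin multiplied by bin number.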

Row | Variant | protein stability index
1 | YQELLRVCCCELGVNPDQVEKIMK | 2.02
2 | YQELLRVCCCELGVNPDQVEKILK | 1.98
3 | YQELLRVCCCELGVNPDQVEKIFK | 1.55
4 | YQELLRVCCCELGVNPDQVEKIYK | 1.8
5 | YQELLRVCCCELGVNPDQVEKIKK | 1.25
6 | YQELLRVCCCELGVNPDQVEKIHK | 1.84
7 | YQELLRVCCCELGVNPDQVEKIWK | 1.72
8 | YQELLRVCCCELGVNPDQVEKIPK | 1.57
9 | YQELLRVCCCELGVNPDQVEKIGK | 1.56
10 | YQELLRVCCCELGVNPDQVEKIEK | 1.6
11 | YQELLRVCCCELGVNPDQVEKISK | 1.72
12 | YQELLRVCCCELGVNPDQVEKIVK | 2.9
13 | YQELLRVCCCELGVNPDQVEKIIK | 1.8
14 | YQELLRVCCCELGVNPDQVEKINK | 1.93
15 | YQELLRVCCCELGVNPDQVEKITK | 2.08
16 | YQELLRVCCCELGVNPDQVEKIQK | 1.4
17 | YQELLRVCCCELGVNPDQVEKIDK | 2.04
18 | YQELLRVCCCELGVNPDQVEKIAK | 1.91
19 | YQELLRVCCCELGVNPDQYEKIRK | 2.26
20 | YQELLRVCCCELGVNPDQWEKIRK | 1.75
21 | YQELLRVCCCELGVNPDQSEKIRK | 1.66
22 | YQELLRVCCCELGVNPDQVECIRK | 1.82

Row | Variant | protein stability index
23 | YQELLRVCCCELGVNPDQVENIRK | 1.85
24 | YQELLRVCCCELGVNPDQVEDIRK | 1.66
25 | YQELLRVCCCELGVNPDQVERIRK | 2.12
26 | YQELLRVCCCELGVNPDQVEAIRK | 2.02
27 | YQELLRVCCCELGVNPDQVEVIRK | 2.54
28 | YQELLRVCCCELGVNPDQVEHIRK | 1.49
29 | YQELLRVCCCELGVNPDQVELIRK | 1.05
30 | YQELLRVCCCELGVNPDQVEWIRK | 2.33
31 | YQELLRVCCCELGVNPDQVEEIRK | 2.4
32 | YQELLRVCCCELGVNPDQVEIIRK | 1.81
33 | YQELLRVCCCELGVNPDQVEPIRK | 1
34 | YQELLRVCCCELGVNPDQVEGIRK | 1.82
35 | YQELLRVCCCELGVNPDQVEYIRK | 2.15
36 | YQELLRVCCCELGVNPDQVEFIRK | 2.97
37 | YQELLRVCCCELGVNPDQVEKKRK | 2.43
38 | YQELLRVCCCELGVNPDQVEKHRK | 2.69
39 | YQELLRVCCCELGVNPDQVEKDRK | 2.25
40 | YQELLRVCCCELGVNPDQVEKLRK | 1.93
41 | YQELLRVCCCELGVNPDQVEKVRK | 1.41
42 | YQELLRVCCCELGVNPDQVEKGRK | 2
43 | YQELLRVCCCELGVNPDQVEKWRK | 1.54
44 | YQELLRVCCCELGVNPDQVEKYRK | 2.57

Row | Variant | protein stability index
45 | YQELLRVCCCELGVNPDQVEKERK | 2.14
46 | YQELLRVCCCELGVNPDQVEKNRK | 3.16
47 | YQELLRVCCCELGVNPDQVEKSRK | 2.06
48 | YQELLRVCCCELGVNPDQVEKRRK | 1.88
49 | YQELLRVCCCELGVNPDQVEKQRK | 2.99
50 | YQELLRVCCCELGVNPDQVEKFRK | 2.44
51 | YQELLRVCCCELGVNPDQVEKPRK | 1.18
52 | YQELLRVCCCELGVNPDQVEKARK | 2.02
53 | YQELLRVCCCELGVNPDQVEKMRK | 1.63
54 | YQELLRVCCCELGVNPDQVEKCRK | 2.13
55 | YQELLRVCCCELGVNPDQVEKIRD | 2.13
56 | YQELLRVCCCELGVNPDQVEKIRR | 1.6
57 | YQELLRVCCCELGVNPDQVEKIRI | 1.6
58 | YQELLRVCCCELGVNPDQVEKIRV | 1.61
59 | YQELLRVCCCELGVNPDQVEKIRQ | 2.12
60 | YQELLRVCCCELGVNPDQVEKIRA | 1.36
61 | YQELLRVCCCELGVNPDQVEKIRN | 1.61
62 | YQELLRVCCCELGVNPDQVEKIRT | 2
63 | YQELLRVCCCELGVNPDQVEKIRH | 1.59
64 | YQELLRVCCCELGVNPDQVEKIRW | 1.27
65 | YQELLRVCCCELGVNPDQVEKIRG | 2.46
66 | YQELLRVCCCELGVNPDQVEKIRL | 2.07

Row | Variant | protein stability index
67 | YQELLRVCCCELGVNPDQVEKIRF | 3.37
68 | YQELLRVCCCELGVNPDQVEKIRE | 1.62
69 | YQELLRVCCCELGVNPDQVEKIRS | 1.66
70 | YQELLRVCCCELGVNPDQVEKIRC | 1
71 | YQELLRVCCCELGVNPDQVEKIRM | 1.66
72 | YQELLRVCCCELGVNPDQVEKIRP | 1.35
73 | YQELLRVCCCELGVNPDQVSKIRK | 1.31
74 | YQELLRVCCCELGVNPDQVIKIRK | 3.43
75 | YQELLRVCCCELGVNPDQVCKIRK | 1.56
76 | YQELLRVCCCELGVNPDQVNKIRK | 1.99
77 | YQELLRVCCCELGVNPDQVLKIRK | 2.4
78 | YQELLRVCCCELGVNPDQVTKIRK | 1.47
79 | YQELLRVCCCELGVNPDQVPKIRK | 1.66
80 | YQELLRVCCCELGVNPDQVKKIRK | 1.96
81 | YQELLRVCCCELGVNPDQVRKIRK | 1.96
82 | YQELLRVCCCELGVNPDQVDKIRK | 2.94
83 | YQELLRVCCCELGVNPDQVQKIRK | 1.75
84 | YQELLRVCCCELGVNPDQVVKIRK | 1.99
85 | YQELLRVCCCELGVNPDQVMKIRK | 1.85
86 | YQELLRVCCCELGVNPDQVAKIRK | 1.97
87 | YQELLRVCCCELGVNPDQVHKIRK | 1.26

Variants of: B2
Assay: as above
Settings: c terminus: a fixed tail appended

Row | Variant | protein stability index
88 | GLLSVIVWMLMLLLAVPNIILTNQ | 2.55
89 | PLLSVIVWMLMLLLAVPNIILTNQ | 2.13
90 | ILLSVIVWMLMLLLAVPNIILTNQ | 2.53
91 | HLLSVIVWMLMLLLAVPNIILTNQ | 4.35
92 | LLLSVIVWMLMLLLAVPNIILTNQ | 3.3
93 | FLLSVIVWMLMLLLAVPNIILTNQ | 3.58
94 | DLLSVIVWMLMLLLAVPNIILTNQ | 1.48
